From patent US20160003843A1 (published 2016)
Ends that are not written are not given here.

What was measured:
[1] = biological target: Ala mutant peptide (Ala at position 8 of …); assay: competition phage ELISA; Asp8 to Ala peptide as soluble competitor
[2] = biological target: T1, unphosphorylated Thr peptide (Thr at position 8 of …); assay: competition phage ELISA; Asp8 to Thr peptide as soluble competitor
T1 sequence (chain, enzymatically biotinylated on the biotin acceptor peptide (BirA)): KGNYVVTTH

[3] = biological target: Tyr mutant peptide (Tyr at position 8 of …); assay: competition phage ELISA; Asp8 to Tyr peptide as soluble competitor
[4] = biological target: T2, unphosphorylated Ser peptide (Ser at position 8 of …) (also: fused to NusA, biotinylated on biotin acceptor peptide (BirA), N-terminal His6 tag); assay: competition phage ELISA; Asp8 to Ser peptide as soluble competitor
T2 construct: also called Ser/Thr (Ser member); not shown: N-terminal His6 tag and biotin acceptor peptide; NusA, fusion partner
T2 chain: KGNYVVTSH
Text: Without being bound by theory, the carboxylate group of Asp8 residue might mimic a phosphorylated residue and thus, the Ab can bind peptides with pSer, pThr, or possibly pTyr in place of Asp8 (Table 5).
Various concentrations of Fab-phage were mixed with a fixed concentration of biotinylated peptide and captured on the NeutrAvidin-coated wells for fifteen minutes. The bound phage were then detected using a horseradish peroxidase (HRP)-conjugated anti-M13 monoclonal (GE Healthcare). For phage competition ELISAs, plates were coated with 10 μg/mL NusA-[…] (the native target for the 1i8i Fab and a weak binder to pSAb, pSTAb, and pYAb), and blocked with 2% BSA. Sub-saturating levels of phage were then pre-bound to the various peptide antigens for two hours at 20° C. and then captured on the NusA-peptide coated plates for fifteen minutes. […] Bound scFv-Fc were detected with HRP-conjugated Protein A (Pierce).

[5] = biological target: T3, wild-type peptide KGNYVVTDH (NusA-KGNYVVTDH) (also: fused to NusA, biotinylated on biotin acceptor peptide (BirA), N-terminal His6 tag); assay: SPR (Biacore 4000); biotinylated antigen captured on NeutrAvidin CM5 chip, Fab in flow; 1:1 Langmuir fit
T3 construct: also called WT Asp; the native target for the 1i8i Fab; not shown: N-terminal His6 tag and biotin acceptor peptide; NusA, fusion partner
T3 chain: KGNYVVTDH
Description: Surface plasmon resonance data were measured on a Biacore model 4000 (Biacore, Uppsala, Sweden). All proteins were in TBS containing 0.1 mg/mL BSA and 0.01% Tween-20. A Biacore CM5 chip was coated with NeutrAvidin at 3000 RU and biotinylated antigens were captured at <100 RU.

fold less binding than to the wild-type Asp8 peptide [1]: > 100 fold
fold less binding than to the wild-type Asp8 peptide [2]: > 100 fold
fold less binding than to the wild-type Asp8 peptide [3]: > 100 fold
fold less binding than to the wild-type Asp8 peptide [4]: > 100 fold
Kd [5]: 9.6 nM
koff [5]: 0.0032 s⁻¹
kon [5]: 338000 M⁻¹ s⁻¹
B1: humanized Fab (humanized version of the mouse 1i8i Fab; parent scaffold, CDR H2 loop STGGYN) (Fab, V domains shown)
VH: EVQLVESGGGLVQPGGSLRLSCVTSGFTFRKFGMSWVRQAPGKGLEWVASISTGGYNTYYSDSVKGRFTISRDNSKNTLYLQMNSLRAEDTAVYYCTRGYSSTSYAMDYWGQGTLVTVSS
VL: DIVLTQSPATLSLSPGERATLSCMTSTDIDDDMNWYQQKPGQAPRLLISEGNTLRPGVPARFSGSGSGTDFTLTISSLEPEDFAVYYCLQSFNVPLTFGQGTKVEIKR
notes: also called parent Fab; humanized scaffold
